This note sets out measurements from patent publication US20110014213A1 (JURIDICAL FDN THE CHEMO SERO THERAP RES INS, published 2011).

This test deals with T1, hα9/mL1-EGFP (human, UniProt Q13797 30-1035).
T1 construct: an offset must be applied; also called L1 loop region variant of human α9-EGFP; not shown: EGFP from pEGFP-N1 vector (Clontech) fused to the C-terminal (cytoplasmic region)
T1 chain: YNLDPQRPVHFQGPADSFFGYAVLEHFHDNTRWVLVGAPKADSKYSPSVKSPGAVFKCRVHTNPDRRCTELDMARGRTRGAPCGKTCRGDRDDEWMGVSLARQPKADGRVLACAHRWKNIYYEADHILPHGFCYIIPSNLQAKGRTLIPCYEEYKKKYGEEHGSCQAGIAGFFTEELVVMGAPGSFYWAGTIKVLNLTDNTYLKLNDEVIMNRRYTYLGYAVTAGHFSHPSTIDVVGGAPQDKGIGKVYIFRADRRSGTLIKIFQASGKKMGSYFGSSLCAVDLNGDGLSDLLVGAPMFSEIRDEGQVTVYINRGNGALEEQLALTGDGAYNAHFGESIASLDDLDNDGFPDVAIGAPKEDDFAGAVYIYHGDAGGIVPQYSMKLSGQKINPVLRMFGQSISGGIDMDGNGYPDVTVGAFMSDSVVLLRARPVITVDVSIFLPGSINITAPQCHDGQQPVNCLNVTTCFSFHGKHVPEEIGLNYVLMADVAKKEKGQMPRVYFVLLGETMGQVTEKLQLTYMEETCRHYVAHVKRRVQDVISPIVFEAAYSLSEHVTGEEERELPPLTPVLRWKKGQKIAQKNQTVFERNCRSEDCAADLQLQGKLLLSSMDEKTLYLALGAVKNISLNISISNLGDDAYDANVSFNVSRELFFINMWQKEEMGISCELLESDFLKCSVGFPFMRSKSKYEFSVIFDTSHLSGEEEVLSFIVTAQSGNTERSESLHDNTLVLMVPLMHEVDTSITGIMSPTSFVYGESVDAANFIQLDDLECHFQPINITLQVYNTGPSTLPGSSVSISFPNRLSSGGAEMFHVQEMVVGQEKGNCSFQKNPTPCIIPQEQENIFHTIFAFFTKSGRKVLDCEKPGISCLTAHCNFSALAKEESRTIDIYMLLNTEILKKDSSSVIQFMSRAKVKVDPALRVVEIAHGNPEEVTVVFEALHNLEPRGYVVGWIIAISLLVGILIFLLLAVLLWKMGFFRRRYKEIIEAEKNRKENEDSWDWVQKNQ
Put plainly: Cell ELISA on transiently expressing CHO cells. The protocol:
CHO/mα9 and CHO were seeded on a 96 well plate (costar) at 2×10⁴ cells/100 μL/well, and incubated overnight at 37° C., 5% CO₂. The medium was suctioned, and the cells were washed with PBS, and reacted with phage antibody diluted with 1% BSA/PBS. The detection was performed by using horse-radish peroxidase (HRP)-labeled anti-M13 antibody (Amersham) and TMB (SIGMA) in combination. The absorbance at wavelengths 450 nm and 650 nm was measured by a microplate reader (Molecular Devices).
SW480/mα9, SW480/hα9 and SW480 were used as antigens, 1% BSA/PBS containing 5% FBS was used as a dilution solution, an HRP-labeled anti-mouse IgG antibody (ZYMED) was used for detection, and the rest was performed under the same conditions as in Example 4.
Next, analysis by Cell ELISA was performed. Various cells after about 24 hr from gene transfection were collected, and seeded on a 96 well plate at 2×10⁴ cells/100 μL/well. The rest was performed under the same conditions as in Example 11.

B1: MA9-413 scFv-Fc (Fc fusion)
scFv: EVQLVESGGGVVRPGGSLRLSCAASGFAFGDYGMSWVRQAPGKGLEWVSGINWNGGSTGYADSVKGRFTTSRDNAKNSLYLQMNSLRAEDTALYYCARDENYDILTGYYYYGMDVWGQGTTVTVSSGGGGSGGGGSGGGGSQSVVTQPPSVSAAPGQKVTISCSGSSSNIGNNYVSWYQQLPGTAPKLLIYDNNKRPSGIPDRFSASKSGTSATLGITGLQTGDEADYYCGTWDSSLTVWAFGGGTKLTVLG
notes: Divalent scFv-Fc with mouse IgG1 Fc, expressed in CHO-DG44; also called ANM-2; not shown: Fc region of mouse IgG1 and its junction to the scFv
B1: the binding result was “binds”.
